Results as given in patent publication US9074002B2, “PTP1B inhibitors” (Cold Spring Harbor Laboratory, priority 2009, dated 2015).
Entries after “also recorded” stand apart in the source; their conditions may differ.

Legend:
[1] = system: tyrosine phosphorylation of insulin receptor β (IRβ) and insulin receptor substrate-1 (IRS-1) in 293T cells; assay: Insulin signaling in 293T cells expressing intrabody: tyrosine phosphorylation of IRβ and IRS-1; assay type: cell-based
From the text: In order to validate this approach further, Applicant tested the effects of expressing one of these (scFv45) as a single chain antibody fragment “intrabody” to PTP1B, using 293T cells as a convenient expression system. This intrabody was expressed transiently and then tested for effects on insulin signaling, focusing initially on the tyrosine phosphorylation status of the β-subunit of the insulin receptor and IRS-1 (FIG. 2). Initial indications are that for both substrates expression of the intrabody had no impact on the basal level of tyrosyl phosphorylation, but it enhanced and extended the time course of insulin-induced phosphorylation, consistent with our proposed mechanism of action.
Intrabody scFv45 was transfected in 293T cells, serum starved and insulin stimulated to investigate the physiological relevance of this intrabody expression in mammalian cells in the context of PTP1B mediated regulation of insulin signaling (or insulin signaling mediated redox regulation of PTP1B activity). Insulin stimulated 293T cells with or without the intrabody were harvested in RIPA buffer (25 mM HEPES, pH 7.5, 150 mM NaCl, 0.25% Deoxychloate, 10% Glycerol, 25 mM NaF, 10 mM MgCl2, 1 mM EDTA, 1% TritonX-100, 0.5 mM PMSF, 10 mM Benzamidine, protease inhibitor cocktail, 1 mM sodium vanadate) and the cell lysates were examined for total tyrosine phosphosphorylation pattern using phospho-tyrosine specific antibodies (FIGS. 3 and 4).

[2] = target: T1, endogenous PTP1B under reducing conditions (Homo sapiens, UniProt P18031); assay: Intrabody interaction in 293T cells under reducing condition (NAC, TCEP) (Ni-NTA pull down / immunoprecipitation); assay type: cell-based; details: 20 mM NAC, lysis buffer with 2 mM TCEP, FIGS. 11, 12
T1 construct: endogenous in cells; host or cells: 293T cells (transfected only with the scFv intrabody)
T1 sequence (P18031 1-435): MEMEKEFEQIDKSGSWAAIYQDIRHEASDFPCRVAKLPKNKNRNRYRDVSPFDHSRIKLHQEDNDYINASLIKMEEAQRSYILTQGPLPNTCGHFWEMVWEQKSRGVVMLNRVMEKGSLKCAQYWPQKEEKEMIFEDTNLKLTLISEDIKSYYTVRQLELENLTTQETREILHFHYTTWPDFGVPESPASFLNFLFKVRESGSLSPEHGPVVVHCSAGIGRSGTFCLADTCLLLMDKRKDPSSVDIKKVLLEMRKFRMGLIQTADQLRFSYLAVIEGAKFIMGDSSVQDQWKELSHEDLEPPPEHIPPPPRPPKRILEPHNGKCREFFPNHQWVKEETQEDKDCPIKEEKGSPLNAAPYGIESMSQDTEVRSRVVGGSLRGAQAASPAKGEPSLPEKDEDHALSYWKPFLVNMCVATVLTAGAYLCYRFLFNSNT
Procedure: One of the positive candidate scFvs (scFv45) was cloned in pcDNA3.2/V5-GW/D-TOPO expression vector and transiently expressed in mammalian cells as stable intracellular antibody (aka intrabody) (FIG. 10). To detect PTP1B-OX and scFv45 interaction in mammalian cells, scFv45 was overexpressed in 293T cells as described herein (See Example 4) and 48 hours post transfection the cells were serum-starved for 16 hours in growth medium (DMEM, low glucose) without serum (FBS), then incubated with 1 mM H2O2 (in growth medium without serum) for 5 minutes at 37° C. or treated with 20 mM NAC (in growth medium without serum) for 1 hour at 37° C. Cells treated with H2O2 were washed twice with cold (4° C.) PBS and lysed in lysis buffer (25 mM HEPES, pH 7.4, 150 mM NaCl, 0.25% Deoxychloate, 1% TritonX-100, 25 mM NaF, 10 mM MgCl2, 1 mM EDTA, 10% Glycerol, 0.5 mM PMSF, 10 mM Benzamidine, protease inhibitor cocktail). Cells treated with NAC were lysed with lysis buffer containing 2 mM TCEP to ensure a post-lysis reducing environment. Interaction between PTP1B and intrabody45 were tested by pulling down the protein complex from 1 mg of total cell lysate with Ni-NTA agarose or by immunoprecipitating PTP with anti-PTP1B (FG6). For the pull down experiment, Ni-NTA agarose beads were incubated with the lysates (both oxidized and reduced) at 4° C. Protein complex bound to the Ni-NTA agarose beads was pulled down and washed three times; first with lysis buffer containing 20 mM imidazole followed by two more washes with wash buffer (PBS, pH 7.4, 20 mM imidazole, 0.05% BSA, 0.05% Tween-20 and protease inhibitors). Applicant used 20 mM imidazole in the wash buffer to reduce the non-specific binding of proteins with the Ni-NTA agarose beads. The complex was eluted with wash buffer containing 500 mM imidazole with gentle shaking at 4° C. and the eluate was mixed with SDS sample buffer with DTT. For the immunoprecipitation experiments, 1 mg of total cell lystates (both oxidized and reduced) was incubated with anti-PTP1B antibody (FG6) at 4° C. The interacting protein complex was immunoprecipitated after incubating the lysate-antibody mixture with protein A/G Sepharose at 4° C. After immunoprecipitation, Sepharose beads were washed three times; first with lysis buffer followed by two more washes with wash buffer (PBS, pH 7.4, 0.05% BSA, 0.05% Tween-20 and protease inhibitors). The Sepharose beads were then heated at 90° C. in 2×SDS sample buffer with DTT. Proteins from the pulled down or immunoprecipitated complex were separated by SDS-PAGE. PTP was detected with anti-PTP1B antibody (FG6) and the intrabodies were detected with anti-HA (3F10)-HRP antibody [anti-HA (3F10)-HRP, Roche] by immunoblotting.
In the initial in vitro phosphatase screening assay using reversibly oxidized (with H2O2) recombinant PTP1B, Applicant found four different PTP1B-OX specific scFvs (scFv45, scFv57, scFv64 and scFv106) from the initial pool of 12 different scFvs. […] Applicant has also shown that scFv45, expressed as an intrabody in mammalian cells, can bind to endogenous PTP1B-OX but not endogenous PTP under reducing conditions. Further assessment was carried out to identify additional PTP1B-OX-specific intrabodies. Additional scFvs have been subcloned in pcDNA3.2/V5-GW/D-TOPO mammalian expression vector (FIG. 10) from their respective phagemid constructs. […]

B1: scFv45: conformation-sensor scFv binding PTP1B-OX, SEQ ID NO: 26 and 78; expressed as intrabody (protein)
scFv: MKKTAIAIAVALAGFATVAQAALTQPSSVSANPGGTVKITCSGSSSAYGYGWYQQKSPGSAPVTVIYNNNKRPSNIPSRFSGSKSGSTGTLTITGVQAEDEAVYFCGSEDSSTDAIFGAGTTLTVLGQSSRSSTVTLDESGGGLQAPGGALSLVCKASGFTFSSYDMGWIRQAPGKGLEYVAGITDNGRYASYGSAVDGRATISRDNGQSSVRLQLNNLRAEDTGTYYCARDDGSGWTGNSIDAWGHGTEVIVSSTSGQAGQHHHHHHGAYPYDVPDYAS
basal level of tyrosyl phosphorylation of insulin receptor β-subunit and IRS-1 ([1]; 293T cells expressing intrabody, no insulin): no impact
tyrosine phosphorylation of insulin receptor β (IRβ) ([1]; 293T cells overexpressing intrabody, insulin stimulated, FIG. 3): increased and prolonged tyrosine phosphorylation
tyrosine phosphorylation of insulin receptor substrate-1 (IRS-1) ([1]; 293T cells overexpressing intrabody, insulin stimulated, FIG. 4): increased and prolonged tyrosine phosphorylation
binding of intrabody to endogenous PTP1B under reducing conditions [2]: not in the cells that were under reducing condition; also recorded: not in the presence of NAC and TCEP
